Here are results for 1 molecule from patent publication US20080113907A1, “Uses Of Galectin-2” (Charite-Universitat-Smedizin Berlin, priority 2004, published 2008).

The test system of data set [1] is dextran sodium sulfate induced colitis. The data set can be described thus: Prevention of DSS induced acute colitis, disease activity index (DAI). Type of data set: in vivo, Balb/c mice. On the procedure: Colitis was induced in 8- to 10-week-old, female, Balb/c mice (Jackson Laboratories, Bar Harbor, Me.) by adding 5% DSS (Sigma Chemical Co., St. Louis, Mo.) (Dextran Sodiumsulfate (DSS) to their drinking water and allowing them to drink ad libitum. Groups of mice were treated either with 1 mg/kg BW (body weight) galectin-2 intraperitoneally or PBS 2 h before DSS administration. Mice were weighed and inspected for diarrhea and rectal bleeding. Seven days after induction of colitis by DSS, mice were killed, their entire colon was resected, and its length was measured and weighed. The disease activity index (DAI; i.e., the combined score of weight loss and bleeding) was determined according to a standard scoring system.
The disease activity index: Loss in bodyweight: 0=no loss; 1=5% to 10%; 2=10% to 15%; 3=15% to 20%; 4 ? 20%.
Hemoccult: 0=no blood; 2=positive; 4=gross blood.
In this experiment the DAI ranges from 0 to 8. The higher the DAI score the more severely the animal had been affected by colitis.
Colitis was induced in 8- to 10-week-old, female, Balb/c mice (Jackson Laboratories, Bar Harbor, Me.) by adding 5% DSS (Sigma Chemical Co., St. Louis, Mo.) (Dextran Sodiumsulfate (DSS) to their drinking water and allowing them to drink ad libitum. Groups of respectively 10 mice were treated either with Galectin-2 subcutaneously (s.c.) or intraperitoneally (i.p.) 2 h before DSS administration. In one trial with 10 mice the doses of Galectin-2 was doubled (administered i.p.) and compared to the treatment of 10 mice with Tacrolimus (FK506) (administered i.p.) in equal concentrations. In parallel a group of 10 mice was treated with 0.9% NaCl instead of Galectin-2 as control. Mice were weighed and inspected for diarrhea and rectal bleeding. 10 days after induction of colitis by DSS, mice were killed, their entire colon was resected, and its length was measured and weighed. The disease activity index (DAI; i.e., the combined score of weight loss and bleeding) was determined according to a standard scoring system.
The disease activity index: Loss in body weight: 0=no loss; 1=5% to 10%; 2=10% to 15%; 3=15% to 20%; 4 ? 20%.

Data set [2] in a line: Toxicity study with supratherapeutic dose in healthy mice. The class given is in vivo, Balb/c mice. The procedure: In addition, Balb/c mice (not treated with DSS) were treated with 100 mg/kg body weight-Galectin-2, a dose that was up to 50-fold higher than doses of Galectin-2 that caused optimal anti-inflammatory effects in DSS treated mice (optimal therapeutic doses ranged from 1.5-3 mg/kg body weight per day). In these toxicity studies Balb/c mice (n=5), weighing on average 20 g, were treated with 100 mg/kg body weight Galectin-2 once daily i.p. for 5 days. The mice gained about 7±1.7% weight during the 5 day treatment period. […] The mice were sacrificed following the 5 day treatment period and organs were collected for pathological assessment by an experienced pathologist.

A further data set concerns caspase-3. The data set is described as follows: Caspase activity by flow cytometry. Type of data set: cell-based, human. The note with it: anti-CD3 activated PBT, 50 μg/ml, 24 h. On the procedure:
(§1) To measure caspase activity, 5×10^5 PBT were incubated in the presence or absence of 50 μg/ml galectin-2 together with derivates of the PE-labelled affinity purified anti-caspase-3 Ab (BD Pharmingen), the carboxyfluorescein-labelled caspase-8 inhibitor FAM-LETD-fmk or caspase-9 inhibitor FAM-LEHD-fmk (both from Biocharta, Hamburg, Germany), all binding irreversibly to activated caspase-3, -8 or -9, respectively. Cells were than analyzed by flow cytometry (FACS-Calibur, BD) and the increase of caspase activity determined after proper gating in correlation to untreated cells.
(Flow cytometry measures light scatter and fluorescence of single cells or particles in a stream.)

Another data set relates to caspase-9. The data set can be described thus: Caspase activity by flow cytometry. Type of data set: cell-based, human. Particulars: anti-CD3 activated PBT, 50 μg/ml, 24 h. On the procedure: as §1
For data set [3], the system named is PBT. The data set is described as follows: Mitochondrial membrane potential (rhodamine 123). Type of data set: cell-based, human. Particulars: CD3 activated PBT, 50 μg/ml. The text has this:
Rhodamine 123 is a fluorescent cationic dye that accumulates in the mitochondrial matrix because of its charge and solubility in both the inner mitochondrial membrane and matrix space (22). Based on the observation that accumulation of this lipophilic dye is in proportion to ΔΨ, and that deenergizing of the mitochondria decreases rhodamine 123 fluorescence (23), the inventors measured the mitochondrial membrane potential of PBT. Cells were stimulated in the presence or absence of galectin-2 with CD3 for 24 h, harvested, washed and resuspended in 1 ml of rhodamine 123 (10 μg/ml, Sigma-Aldrich) for 30 min at 37° C. in the dark. The samples were washed twice in cold PBS and fluorescence analysis by flow cytometry using an argon ion laser with an emission filter at 530 nm was performed immediately without fixation (BD FacsCalibur). PBT without stimulation and unstained samples were used as controls.

The test system of data set [4] is PBT. The data set is described as follows: Cytokine secretion (cytometric bead array). Type of data set: cell-based, human. On the procedure:
To determine cytokine secretion, PBT were cultured for 48 h with or without anti-CD3 mAb and incubated in the presence or absence of 0, 10, or 50 μg/ml Gal-2. The supernatant was then collected and cytokine secretion determined by a cytometric bead array, performed according to the manufacturer's instruction (BD Pharmingen). Briefly, six bead populations with distinct fluorescence intensities, coated with capture antibodies specific for TNF-α, IFN-γ, IL-10, IL-5, IL-4, and IL-2 proteins, were mixed with PE-conjugated detection anti-bodies and incubated with recombinant standards or test sample to form sandwich complexes. Following acquisition of sample data using flow cytometry, the cytokine concentrations were calculated using the BD CBA analysis software.

Setting [5] is: 100 mg/kg once daily i.p. for 5 days.

B1: galectin-2: β-galactoside binding lectin, non-covalent dimer with subunits of about 14 kDa; recombinant human or rat (SEQ ID NO:1, 2) (protein)
chain: MAGELEVKNMDMKPGSTLKITGSIADGTDGFVINLGQGTDKLNLHFNPRFSESTIVCNSLDGSNWGQEQREDHLCFSPGSEVKFTVTFESDKFKVKLPDGHELTFPNRLGHSHLSYLSVRGGFNMSSFKLKE
B1: in data set [1] (1 mg/kg BW i.p. 2 h before DSS, seven days after induction, mean ± SD, DAI 0 to 8, control 6.3 ± 2.30), the “DAI (disease activity index)” value is on record as 4.5 ± 2.1,. In addition, in data set [1] (1 mg/kg i.p., 10 days after induction, control 6.5 ± 0.3), the “DAI (disease activity index)” value was 5.0 ± 0.7,. Besides, the “DAI (disease activity index)” value in data set [1] (1 mg/kg s.c., 10 days after induction, control 6.5 ± 0.3) is on record as 5.8 ± 0.7,. Besides, in data set [1] (2 mg/kg i.p., 10 days after induction, control 6.5 ± 0.3), the “DAI (disease activity index)” value is on record as 2.6 ± 0.6,. For the same molecule, in data set [2] (setting [5]), the mortality entry was “None of these animals died”; the “pathological assessment of heart, kidney, lung, liver” value is “did not reveal any microscopic or macroscopic damage”; the weight gain result is “about 7±1.7%”. The “highest dose evaluated relative to optimal dose” value in data set [2] (100 mg/kg versus 2×1 mg/kg) is “about 50 fold”. The dose limiting toxicities entry in data set [2] (broad dose range up to 100 mg/kg) is “no dose limiting toxicities were observed”. In addition, the caspase-3 activity entry in the data set with caspase-3 is listed as “significant increase”. The caspase-9 activity entry in the data set on caspase-9 is on record as “significant increase”. Further, the mitochondrial polarization potential result in the data set with PBT [3] is on record as “clear decrease in the mitochondrial polarization potential”. Also, in the data set with PBT [4] (anti-CD3 activated T cells), the IFN-γ production entry is “downregulated significantly and dose-dependently”; the IL-2 secretion result is listed as “not influenced”; the IL-4 secretion entry is recorded as “not altered”; the IL-5 secretion result was “increasing”. Further, in the data set with PBT [4] (anti-CD3 activated T cells), the IL-10 secretion result was “increasing”; the TNF-α production result is “downregulated significantly and dose-dependently”. For the same molecule, in the data set on PBT [4] (resting T cells), the “cytokine production of resting T cells” value is on record as “failed to modulate cytokine production of resting T cells”.
